Usually EC50 stands for the concentration needed to bring the measured effect to its halfway point. Read a low EC50 as greater potency. As usually defined, the Kd is a measure of binding affinity in units of concentration. High values mean a looser complex, low ones a tighter complex. Broadly, the koff is a measure of how fast the partners let go of each other. The low end stands for a long-lived complex, the high end for a short-lived complex. Broadly, the kon is a measure of how fast the partners come together. Low readings indicate slower complex formation, high ones faster complex formation. Broadly, the EC50 (read off the curve) is the midpoint of the concentration-response curve. A low value points to higher potency in that assay.

Here are results for three molecules from patent US20120251547A1 (Amgen, published 2012).

Test [1] has as its target T1, chimera M.
T1 construct: human IL-17RA extracellular domain with mouse Domains C and F; also called Construct M
The test can be described thus: Bio-Plex titration on His-captured chimera.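 Further: binding of anti-IL-17RA antibodies (4-fold titration across about 5 logs, 1 h) to His-captured IL-17RA chimeras on multiplexed beads, MFI read as percent of maximal wild-type human IL-17RA signal.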

The target of test [2] is T2, chimera F.
T2 construct: human IL-17RA extracellular domain with mouse Domain F; column head 229-319; also called Construct F
The test can be described thus: Bio-Plex titration on His-captured chimera.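 Further: binding of anti-IL-17RA antibodies (4-fold titration across about 5 logs, 1 h) to His-captured IL-17RA chimeras on multiplexed beads, MFI read as percent of maximal wild-type human IL-17RA signal.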

In test [3] the target is T3, chimera K.
T3 construct: human IL-17RA extracellular domain with mouse Domains A and F; also called Construct K
Nature of the test: Bio-Plex titration on His-captured chimera.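 Further: binding of anti-IL-17RA antibodies (4-fold titration across about 5 logs, 1 h) to His-captured IL-17RA chimeras on multiplexed beads, MFI read as percent of maximal wild-type human IL-17RA signal.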

For test [4], the target named is human IL-17RA (form used in the low resolution BIAcore not stated) (human, UniProt Q96F46 33-320, limits assumed). The test can be described thus: low resolution BIAcore, subcloned hybridoma.
For test [5], the target named is T4, huIL-17RA-FLAG-polyHis (human, UniProt Q96F46 33-320).
T4 construct: also called IL-17RA-FLAG-pHis; wild-type IL-17RA
The test can be described thus: binning; IL-17RA held by bead mAb R.

The target of test [6] is T4, huIL-17RA-FLAG-polyHis. The test can be described thus: Bio-Plex, His-tagged wild-type huIL-17RA on pentaHis beads, antibody titration, PE anti-human IgG Fc.
Test [7] deals with T5, cynomolgus IL-17RA, on cells (cynomolgus).
T5 construct: whole, on cells; also called CHO-cynoIL-17RA; cyno IL-17RA+ CHO cells
The test can be described thus: FACS competition: non-clonal supernatant inhibiting biotin-huIL-17A (competitor) binding to cyno IL-17RA+ CHO cells.

Test [8] has as its target T4, huIL-17RA-FLAG-polyHis. Nature of the test: binning; IL-17RA held by bead mAb J.
The target in another test is D152R IL-17RA mutant (human, UniProt Q96F46 33-320). Nature of the test: Bio-Plex titration on His-captured D152R mutant.
For test [9], the target named is T4, huIL-17RA-FLAG-polyHis. Nature of the test: binning; IL-17RA held by bead mAb M.
Test [10] has as its target T4, huIL-17RA-FLAG-polyHis. Nature of the test: binning; IL-17RA held by bead mAb H.
Test [11] has as its target T1, chimera M. The test can be described thus: Bio-Plex titration on His-captured chimera; cell bold in heavy box (shaded: lost binding).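 Further: binding of anti-IL-17RA antibodies (4-fold titration across about 5 logs, 1 h) to His-captured IL-17RA chimeras on multiplexed beads, MFI read as percent of maximal wild-type human IL-17RA signal.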
The target in another test is T6, chimera L.
T6 construct: human IL-17RA extracellular domain with mouse Domains B and F; B+F; also called Construct L
The description is as above.

Test [12] concerns the target T3, chimera K. The test is described as above.
The target of the next test is T7, chimera D.
T7 construct: human IL-17RA extracellular domain with mouse Domain D; column head 176-197; also called Construct D
T7 IL-17RA extracellular domain with FLAG-polyHis tag: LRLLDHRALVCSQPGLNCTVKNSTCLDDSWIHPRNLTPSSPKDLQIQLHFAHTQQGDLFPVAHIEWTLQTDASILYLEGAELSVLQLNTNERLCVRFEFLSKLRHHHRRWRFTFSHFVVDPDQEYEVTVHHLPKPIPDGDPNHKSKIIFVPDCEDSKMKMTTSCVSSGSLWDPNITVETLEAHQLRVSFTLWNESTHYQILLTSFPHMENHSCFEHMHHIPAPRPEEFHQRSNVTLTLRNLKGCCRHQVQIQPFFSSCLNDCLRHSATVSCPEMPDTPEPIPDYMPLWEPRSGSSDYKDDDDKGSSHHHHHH
Nature of the test: Bio-Plex titration on His-captured chimera.

The next test deals with T8, chimera J.
T8 construct: human IL-17RA extracellular domain with mouse Domains D and E; column head D+E; also called Construct J
Nature of the test: Bio-Plex titration on His-captured chimera.

Test [13] concerns the target T4, huIL-17RA-FLAG-polyHis. Nature of the test: SPR Biacore 3000, mAb captured on anti-human IgG CM4 chip, soluble huIL-17RA-FLAG-polyHis as analyte, 25 C, 1:1 model. A general note: In SPR one partner is held on a chip, and binding of the other changes the refractive index at the surface.
For test [14], the target named is human IL-17RA, full-length, on cells (human, UniProt Q96F46 33-866). The test can be described thus: cell-based or functional assay.
The next test deals with T9, muIL-17RA-FLAG-polyHis (mouse, UniProt Q60943 32-322).
T9 construct: also called mouse IL-17RA; mu WT
The test can be described thus: Bio-Plex, His-tagged muIL-17RA on pentaHis beads, antibody titration.

Test [15] addresses T2, chimera F. Nature of the test: Bio-Plex titration on His-captured chimera; cell not bold in the scan.

T9 sequence (Q60943 32-322 limits assumed): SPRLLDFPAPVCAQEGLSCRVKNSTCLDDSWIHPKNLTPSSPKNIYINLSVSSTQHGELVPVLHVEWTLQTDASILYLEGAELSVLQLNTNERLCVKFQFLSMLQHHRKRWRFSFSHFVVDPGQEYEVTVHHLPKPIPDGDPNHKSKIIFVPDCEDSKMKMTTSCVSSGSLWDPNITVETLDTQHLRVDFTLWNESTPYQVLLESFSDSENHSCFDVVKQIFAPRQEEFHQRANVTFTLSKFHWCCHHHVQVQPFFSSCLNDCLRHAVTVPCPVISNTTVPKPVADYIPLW

B1: AMH21/AML21 (antibody, IgG2, V domains shown)
VH: EVQLVESGGGSVQPGGSLRLSCAASGFTFSSYSMNWVRQAPGKGLEWVSIISSRSSIIHYADSVKGRFTISRDNAKNSLYLQMNSLRDEDTAVYYCARPKVGGGMDVWGQGTTVTVSS
VL: DIQMTQSPSSLSASVGDRVTITCRASQGISNYLAWYQQKPGKFPELLIYAASTLQSGVPSRFSGSGSGTDFTLTISSLQPEDVATYYCQKYNRAPFTFGPGTKVDIK
notes: human mAb from IgG2 XenoMouse mice; also called AM-21; antibody Q
Regarding B1, the concentration for a half-maximal effect (EC50) is 0.035 nM with chimera M [1], 0.026 nM with chimera F [2], 0.017 nM with chimera K [3] and 0.018 nM with huIL-17RA-FLAG-polyHis [6]. In test [4], binding was put at a Kd of 16.7 nM. For the same molecule, the “normalized MFI” value in the test with huIL-17RA-FLAG-polyHis [5] amounted to 34; in the test with huIL-17RA-FLAG-polyHis [8], 23; with huIL-17RA-FLAG-polyHis [9], 44.5; in the test with huIL-17RA-FLAG-polyHis [10], 10200. Further, the MFI in [7] was 6. For the same molecule, the binding result in the test with D152R IL-17RA mutant was “no binding (tested: log [Ab] about 0.5 (about 3 nM))”.

B2: AMH20/AML20 (antibody, IgG2, V domains shown)
VH: EVQLVESGGGLVQPGGSLRLSCAASGFTFSSYSMNWVRQAPGKGLEWVSFISARSSTIYYADSVKGRFTISRDNAKNSLYLQMNSLRDEDTAVYYCARPKVGGGMDVWGQGTTVTVSS
VL: DIQMTQSPSSLSASVGDRVTITCRASQGISNYLAWYQQKPGKFPELLIYAASTLQSGVPSRFSGSGSGTDFTLTISSLQPEDVATYYCQKYNRAPFTFGPGTKVDIK
notes: human mAb from IgG2 XenoMouse mice; also called AM-20; antibody R
As for B2, the EC50 in the test with chimera M [1] was determined as 0.04 nM; with chimera F [2] it was 0.029 nM; with chimera K [3] it was 0.022 nM; with huIL-17RA-FLAG-polyHis [6], 0.022 nM. For the same molecule, the equilibrium dissociation constant (Kd) in test [4] stood at 11.6 nM. Moreover, the “normalized MFI” value was determined as 25 with huIL-17RA-FLAG-polyHis [5], 26 in the test with huIL-17RA-FLAG-polyHis [8], 24 in the test with huIL-17RA-FLAG-polyHis [9] and 8300 in the test with huIL-17RA-FLAG-polyHis [10]. Further, in the test with D152R IL-17RA mutant, the binding result was “no binding (tested: log [Ab] about 0.5 (about 3 nM))”.

B3: AMH18/AML18 (antibody, IgG2, V domains shown)
VH: QVQLVQSGAEVKKPGASVKVSCKASGYSFTDYYMHWVRQAPGQGLEWMGWMHPNSGGTDLAQRFQGRVTMTRDTSISTAYMELSRLRSDDTAVYYCARGGYCSTLSCSFYWYFDLWGRGTLVTVSS
VL: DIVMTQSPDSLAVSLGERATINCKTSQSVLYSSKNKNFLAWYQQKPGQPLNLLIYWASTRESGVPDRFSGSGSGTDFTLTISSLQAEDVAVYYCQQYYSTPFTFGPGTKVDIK
notes: human mAb from IgG2 XenoMouse mice; also called AM-18; antibody G
Consider B3, for which the 50% effective concentration (EC50) in the test with chimera M [11] is 1.55 nM; with chimera K [12], 31.3 nM; with chimera D, 0.059 nM; with chimera J, 0.064 nM; in the test with huIL-17RA-FLAG-polyHis [6], 0.061 nM; with chimera F [15], 3.1 µM. Besides, the “EC50 cell printed as zero (binding ablated)” value with chimera L amounted to 0 nM. The Kd turned out to be 14.9 nM in test [4] and 9.88 nM with huIL-17RA-FLAG-polyHis [13]. For the same molecule, the “normalized MFI” value was 5110 with huIL-17RA-FLAG-polyHis [5], 2900 with huIL-17RA-FLAG-polyHis [8], 2380 with huIL-17RA-FLAG-polyHis [9] and 4000 in the test with huIL-17RA-FLAG-polyHis [10]. In the test with huIL-17RA-FLAG-polyHis [13], the Ka amounted to 1.01e+08 M⁻¹. For the same molecule, the koff with huIL-17RA-FLAG-polyHis [13] stood at 0.00101 s⁻¹. This molecule also registered a kon in the test with huIL-17RA-FLAG-polyHis [13] of 102000 M⁻¹ s⁻¹. Moreover, the “IL-17A/HFF IC50” value in [14] is 0.33 nM. Moreover, the “IL-17A/lung fibroblast IC50” value in [14] was 0.081 nM. Also, the “IL-17F/HFF IC50” value in test [14] was 0.073 nM. Moreover, the binding result in the test with muIL-17RA-FLAG-polyHis was “no binding”. Moreover, the concentration for a half-maximal effect (EC50 (read off the curve)) in the test with D152R IL-17RA mutant is about 0.07 nM.
